Data on three molecules can be found in patent publication US20240026019A1 (Innovent, published 2024).

Test [1] has as its target human TNFR2 overexpressed on CHO-S cells (CHOS-hTNFR2) (human) (UniProt P20333). The test is described as follows: flow cytometry on CHO-S cells overexpressing human TNFR2 (negative control), MFI-FL2-A; unit taken from the axis Conc log(nM); the curve is flat, so the fit is ambiguous.
The target in test [2] is cynomolgus monkey TNFR2 overexpressed on CHO-S cells (CHOS-cTNFR2) (cynomolgus monkey). The test is described as follows: flow cytometry on CHO-S cells overexpressing cynomolgus monkey TNFR2 (negative control), MFI-FL2-A; unit taken from the axis Conc log(nM); the curve stays near the baseline. In general terms: A flow cytometer gives signals particle by particle.
Test [3] concerns the target TNFR2 on human K562 chronic myeloid leukemia cells and on primary human Treg cells (human) (UniProt P20333). The test is described as follows: flow cytometry on human K562 CML cells (negative control), MFI(FL2); unit taken from the axis Conc log(nM); the curve stays near the baseline and the value lies beyond the highest concentration shown.
For test [4], the target named is T1, human TNFR2 overexpressed on CHO-S cells (CHOS-hTNFR2) (human, UniProt P20333 23-461).
T1 construct: also called hTNFR2 CHO-S; human TNFR2 molecule overexpressed on CHO-S cells
T1 sequence: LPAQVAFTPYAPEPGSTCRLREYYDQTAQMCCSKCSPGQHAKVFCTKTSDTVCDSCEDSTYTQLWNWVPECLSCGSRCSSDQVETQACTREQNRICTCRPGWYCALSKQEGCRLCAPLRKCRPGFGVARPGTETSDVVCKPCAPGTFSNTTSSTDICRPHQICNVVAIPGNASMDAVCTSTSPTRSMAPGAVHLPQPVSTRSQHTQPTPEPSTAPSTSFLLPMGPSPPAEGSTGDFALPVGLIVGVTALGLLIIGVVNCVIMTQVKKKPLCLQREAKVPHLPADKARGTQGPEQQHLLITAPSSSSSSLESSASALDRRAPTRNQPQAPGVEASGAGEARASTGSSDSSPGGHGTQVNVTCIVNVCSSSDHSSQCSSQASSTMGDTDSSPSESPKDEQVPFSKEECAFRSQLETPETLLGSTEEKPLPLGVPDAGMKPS
As to the kind of experiment: flow cytometry on CHO-S cells overexpressing human TNFR2 (hybridoma antibodies), MFI. Here is the method:
(§1) In the study, the binding of the hybridoma antibodies (3C4, 69B1, and 72G8) of the present invention, after being diluted in a gradient, to a stable CHO-S cell strain overexpressing human TNFR2 on the surface was assayed by using a flow cytometer.
(§2) CHOS-hTNFR2 cells or CHOS-cTNFR2 cells were counted and diluted to 2×10⁶ cells/mL, and added to a U-bottom 96-well plate at 100 μL/well. The mixture was centrifuged at 300 g for 5 min, and the cell medium was removed. The dilutions of the samples (the hybridoma antibodies 3C4, 69B1, and 72G8 and the positive control antibody OPI) (the antibodies were subjected to a two-fold serial dilution in PBS from the maximum antibody concentration of 300 nM) were added to the U-plate, and the cells were resuspended at 100 μL/well and left to stand on ice for 30 min. The suspension was centrifuged at 400 g for 5 min, and the supernatant was removed. The cells were washed twice with PBS. The mixture was centrifuged at 300 g for 5 min, and PBS was removed. […] The mixture was centrifuged at 400 g for 5 min, and the supernatant was removed. The cells were washed 3 times with PBS. The cells were resuspended in 200 μL of 1×PBS and assayed by FACS.

Test [5] addresses T2, cynomolgus monkey TNFR2 overexpressed on CHO-S cells (CHOS-cTNFR2) (cynomolgus monkey, UniProt P20333 23-461 (human entry)).
T2 construct: also called cTNFR2 CHO-S
T2 chain: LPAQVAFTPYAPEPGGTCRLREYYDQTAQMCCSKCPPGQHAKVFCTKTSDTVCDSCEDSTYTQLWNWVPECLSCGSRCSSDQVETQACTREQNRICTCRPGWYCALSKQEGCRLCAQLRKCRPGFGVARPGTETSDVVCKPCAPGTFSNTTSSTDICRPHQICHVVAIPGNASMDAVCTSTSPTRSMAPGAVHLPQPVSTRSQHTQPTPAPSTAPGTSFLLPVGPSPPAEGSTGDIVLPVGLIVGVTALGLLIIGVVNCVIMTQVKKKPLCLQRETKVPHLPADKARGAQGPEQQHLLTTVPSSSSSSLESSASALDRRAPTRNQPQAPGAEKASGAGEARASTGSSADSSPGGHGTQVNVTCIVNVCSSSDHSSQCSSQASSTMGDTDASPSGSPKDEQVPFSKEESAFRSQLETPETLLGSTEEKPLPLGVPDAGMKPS
The test is described as follows: flow cytometry on CHO-S cells overexpressing cynomolgus monkey TNFR2 (hybridoma antibodies), MFI. Here is the method:
as §1, §2

Test [6] concerns the target T3, CYNO-TNFR2-His (cynomolgus monkey TNFR2, His tag) (cynomolgus monkey, UniProt A0A2K5VET2 132-366).
T3 construct: Soluble antigen of the ForteBio assay; also called cTNFR2; not shown: His tag
T3 sequence: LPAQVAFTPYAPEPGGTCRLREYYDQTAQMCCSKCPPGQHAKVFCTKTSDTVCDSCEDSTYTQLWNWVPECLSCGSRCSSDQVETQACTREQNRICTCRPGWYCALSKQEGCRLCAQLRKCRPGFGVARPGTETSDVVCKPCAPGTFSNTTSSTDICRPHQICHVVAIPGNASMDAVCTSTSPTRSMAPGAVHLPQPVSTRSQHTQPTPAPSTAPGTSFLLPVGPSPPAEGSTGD
The test is described as follows: BLI (ForteBio), antibody on sensor, 100 nM CYNO-TNFR2-His in solution, 1:1 model. As for the experimental part: (§3) In the present invention, the equilibrium dissociation constant (KD) for the binding of the 3 exemplary chimeric antibodies of the present invention described above to human TNFR2 (hTNFR2), cynomolgus monkey TNFR2 (cTNFR2), murine TNFR2(mTNFR2), and human TNFR1(hTNFR1) was determined by biological optical interferometry (ForteBio). For comparison, the equilibrium dissociation constant (KD) of a positive control antibody OPI (humanized antibody SBT-002e in WO 2017083525, VH sequence of SEQ ID NO: 58, VL sequence of SEQ ID NO: 59) was determined.
(§4) The ForteBio affinity assay was performed according to the prior art (Estep, P, et al., High throughput solution based measurement of antibody-antigen affinity and epitope binning. MAbs, 2013.5(2): p. 270-278). Briefly, a sensor was equilibrated offline in an assay buffer for 30 min, and was equilibrated online for 60 s to establish a baseline. The purified antibodies obtained as described above were loaded online onto an AHQ sensor (ForteBio) for the ForteBio affinity assay. The sensor with the loaded antibodies was then exposed to each of 100 nM hTNFR2, cTNFR2, mTNFR2, and hTNFR1 antigens for 5 min before transferring the sensor to an assay buffer for 5 min of dissociation for dissociation rate measurement. The kinetic analysis was performed using a 1:1 binding model.

Test [7] addresses T2, cynomolgus monkey TNFR2 overexpressed …. As to the kind of experiment: flow cytometry on CHO-S cells overexpressing cynomolgus monkey TNFR2 (chimeric antibodies), MFI-FL2-A; unit taken from the axis Conc log(nM); the curve is still rising at log(nM) 2.5, no upper plateau. As for the experimental part:
(§5) In the study, the binding of the chimeric antibodies of the present invention, after being diluted in a gradient, to a stable CHO-S cell strain overexpressing human TNFR2 on the surface was assayed by using a flow cytometer. cDNAs encoding human TNFR2 (SEQ ID NO: 60) and cynomolgus monkey TNFR2 (SEQ ID NO: 61) were cloned into pCH01.0 vectors (Invitrogen), which were transfected into CHO-S cells (Invitrogen) to produce CHO-S cells overexpressing human TNFR2 (CHOS-hTNFR2) and CHO-S cells overexpressing cynomolgus monkey TNFR2 (CHOS-cTNFR2).
(§6) CHOS-hTNFR2 cells or CHOS-cTNFR2 cells were counted and diluted to 2×10⁶ cells/mL, and added to a U-bottom 96-well plate at 100 μL/well. The mixture was centrifuged at 300 g for 5 min, and the cell medium was removed. The dilutions of the samples (the chimeric antibodies 3C4, 69B1, and 72G8 and the positive control antibody OPI) (the antibodies were subjected to a three-fold serial dilution in PBS from the maximum antibody concentration of 300 nM) were added to the U-plate, and the cells were resuspended at 100 μL/well and left to stand on ice for 30 min. The suspension was centrifuged at 400 g for 5 min, and the supernatant was removed. The cells were washed twice with PBS. The mixture was centrifuged at 300 g for 5 min, and PBS was removed. […]

Test [8] addresses T4, rh-TNFR2-His (recombinant human TNFR2, His tag) (human, UniProt P20333 23-257).
T4 construct: Soluble antigen of the ForteBio assay; not shown: His tag
T4 sequence (looked up): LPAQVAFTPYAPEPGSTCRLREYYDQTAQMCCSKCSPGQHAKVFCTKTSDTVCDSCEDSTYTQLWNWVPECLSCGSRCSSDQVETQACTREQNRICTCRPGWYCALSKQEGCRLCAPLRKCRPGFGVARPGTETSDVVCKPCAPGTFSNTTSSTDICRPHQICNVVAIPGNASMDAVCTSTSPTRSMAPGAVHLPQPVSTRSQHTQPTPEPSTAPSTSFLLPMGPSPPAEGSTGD
The test is described as follows: BLI (ForteBio), antibody on sensor, 100 nM rh-TNFR2-His in solution, 1:1 model. As for the experimental part: as §3, §4
On the technique in general: BLI is a label-free optical method that tracks binding on a fibre tip over time.

Test [9] addresses T1, human TNFR2 overexpressed on CHO-S …. The test is described as follows: flow cytometry on CHO-S cells overexpressing human TNFR2 (chimeric antibodies), MFI-FL2-A; unit taken from the axis Conc log(nM); the curve is still rising to about 29000 at log(nM) 2.5. As for the experimental part:
as §5, §6

A word on the EC50: it is the concentration giving half of the maximal effect. As a reminder, the EC50 (read off the curve) is the concentration giving half of the maximal effect. As a reminder, the Kd is the equilibrium constant for the complex coming apart. As a reminder, the koff is the rate constant with which the complex falls apart. What is called kon is a measure of how fast the partners come together.

Take IgG (antibody): the results for the EC50 in [1], in [2] and in [3] were 13500 µM, 0.00112 µM and 0.0223 µM, respectively.

B1: hybridoma antibody 69B1 (antibody, V domains shown)
VH: QIQLVQSGPELKKPGETVKISCKASGYTFTDYSMNWVKQAPGKGLKWMGWLNTETGEPIYADDFKGRFVFSLETSASTAYLEINNLNDEDTATYFCAREAIYYGTSYVLDYWGQGTSVTVSS
VL: DIVLTQSPASLAVSLGQRATISCRASESVEYYGTNFMQWYQQKPGQPPKLLIYSASNVESGVPARFSGSGSGTDFSLNIHPVEEDDIAVYFCQQSRKDPSTFGEGTNLEIK
notes: Murine antibody from the hybridoma (detected with anti-mouse IgG)
With B1, the “EC50 (read off the curve)” value in test [4] and in [5] was approximately 0.001 µM each time.

B2: chimeric antibody 72G8 (antibody, human IgG1, kappa, V domains shown)
VH: EVQLQQSGAELARPGASVMLSCKASGYTFTSYWMQWLKQRPGQGLEWIGAIYPGDGDTRYTQKFKGKATLTADKSSSTAYMQLSSLASEDSAVYYCVRDDGLYYAMDYWGQGTSVTVSS
VL: QIVLTQSPTIMSASLGERVTMTCTASSSVSSSYLHWYQQKPGSSPKLWIYSTSNLASGVPARFSGSGSGTSYSLTISSMEAEDAATYYCHQYHRSPPTFGGGTKLEIKR
In test [6], B2 registered a Kd of 0.00311 µM, an off-rate (koff) of 0.00509 s⁻¹ and a kon of 1.64e+06 M⁻¹ s⁻¹. This molecule gave a 50% effective concentration (EC50) in test [7] of 0.122 µM. In addition, in [8], the Kd came out at 0.00451 µM, the koff was 0.00515 s⁻¹ and the association rate constant (kon) came to 1.14e+06 M⁻¹ s⁻¹. In test [9], the EC50 amounted to 0.0284 µM.
